This is an account of results in patent US20260166168A1 (MEDILINK THERAPEUTICS SUZHOU, published 2026).

Broadly, the EC50 (read off the curve) is the concentration needed to bring the measured effect to its halfway point. In general, EC50 refers to the concentration needed to bring the measured effect to its halfway point. What is called Kd is the equilibrium constant for the complex coming apart. By koff is commonly meant the first-order rate constant of dissociation. By kon is commonly meant the rate constant with which the complex forms.

To fix the notation:
B1: DL312 (antibody, V domains shown)
VH: EVKLVESGGGLVQPGGSLSLSCAASGFTFTDYYMNWVRQPPGKALEWLALIRNKANGYTTEYNASVKGRFTISRDNSQNILYLQMNALRAEDSATYYCARDSDGYYEYYFDYWGQGTTLTVSS
VL: DIQMTQSPSSLSASLGERVSLTCRASQEISDYLSWLQQKPDGTIKRLIFAASTLDSGVPKRFSGSRSGSDFSLSISSLESEDFADYYCLQYASYPYTFGSGTKLEIK
B2: DL301 (antibody, V domains shown)
VH: QVQLQQSGADLVRPGTSVKVSCKASGYAFTNYLIEWIKQRPGQGLEWIGVMNPGSGGTHYSEKFRGKATLTADKSSSTAYMQLISLTSDDSAVYFCARSDYDYVTYAMDYWGQGTSVTVSS
VL: DIKMTQSPSSMYASLGERVTITCKASQDINSYLIWFQQKPGKSPKTLIYRTNRLVDGVPSRFSGSGSGQDYSLTISSLEYGDMGIYYCLQYDEFPFTFGSGTKLEIK
B3: DL306 (antibody, V domains shown)
VH: EVQLQQSGPELVKPGASVKMSCRASGYTFTDYYMKWVKQSHGKSLEWIGDINPNNGDTFYNQKFKGKATLTIDKSSSTAYMQLNSLTSDDSAVYYCARDGNYAYFDYWGQGTTLTVSS
VL: DIVLTQSPASLAVSLGQRATISCRASKSVSTSGYSYMHWYQQKPGQPPKLLIFLASNLESGVPARFSGSGSGTDFTLNIHPVEEEDAATYYCQHSRHLPWTFGGGTKLEIK
B4: DL309 (antibody, V domains shown)
VH: QVQLQQSGGDLMKPGASVKISCKAAGYTFSNYYIEWVKQRPGHGLEWIGEILPGSGSTTYNEKFKGKASFTADTSSNTAYMQLSSLTSEDSAVYYCARWGAREPGFPYWGQGTLVTVSA
VL: DIVMTQSQKFMSTSVGDRVSVTCKASQNVGTNVAWYQQKPGQSPKALIYSASYRYSGVPDRFTGSGSGTDFTLTISNVQSEDLAEYFCQQYNNYPLTFGAGTKLELK
B5: 6F11C10-Hz1 antibody (antibody, human IgG1, kappa, V domains shown)
VH: EVQLVQSGAEVKKPGASVKVSCKASGFTFTDYYMHWVRQAPGQSLEWMGLVYPYNGDISYAQKFQGRVTLTVDTSISTAYMELSRLRSDDTAVYYCARQGNYVNNAIDYWGQGTLVTVSS
VL: DIQMTQSPSSLSASVGDRVTITCKASQNVGNIIAWYQQKPGKSPKALIYLASYRYSGVPSRFSGSGSGTDFTLTISSLQPEDVATYFCQQYSDSPYTFGQGTKVEIKR
notes: Humanized IgG1/kappa
B6: 87F7F10-Hz (antibody, human IgG1, kappa, V domains shown)
VH: QVQLQESGPGLVKPSETLSLTCTVSGYSITSDFYWNWIRQPPGKGLEWIGYITYDGSTNYNPSLKSRVTISRDTSKNQFSLKLSSVTAADTAVYYCVYGDFNRHAMDYWGQGTLVTVSS
VL: DIVMTQSPDSLAVSLGERATINCRSSQSLFNSRTRKNYLAWYQQKPGQPPKVLIYWASTRESGVPDRFSGSGSGTDFTLTISSLQAEDVAVYYCEQSFYLFTFGQGTKVEIKR
notes: Humanized; also called 87F7F10-hz1
B7: 59B10D3-Hz antibody (antibody, human IgG1, kappa, V domains shown)
VH: EVQLVESGGGLVQPGGSLRLSCAASGFTFSDAWMDWVRQAPGKGLEWVAEIRNKANNHATYYVDSVKGRFTISRDDAKNSVYLQMNSLRAEDTAVYYCTRNNYGSTWTYYAMDYWGQGTLVTVSS
VL: DIQMTQSPSSLSASVGDRVTITCRASQDISNYLNWYQQKPGKAVKLLIYYTSRLHSGVPSRFSGSGSGTDYTLTISSLQPEDFATYYCQQGYTLPLTFGQGTKVEIKR
notes: Humanized; also called 59B10D3-hz1
B8: 55C11E4-Hz1 (antibody, human IgG1, kappa, V domains shown)
VH: EVQLVQSGAEVKKPGASVKVSCKASGYTFTDYYMNWVRQAPGQRLEWMGVINPYNGGTNYSQKFQGRVTLTVDKSASTAYMELSSLRSEDTAVYYCARDSNYVGLLDYWGQGTLVTVSS
VL: DIVLTQSPATLSLSPGERATLSCRASQSISNNLHWYQQKPGQAPRLLIKYASQSISGIPARFSGSGSGPDFTLTISSLEPEDFAVYFCQQSNSWPYTFGQGTKVEIKR
notes: Humanized IgG1/kappa
B9: 10F2F3-Hz antibody (antibody, human IgG1, kappa, V domains shown)
VH: QVQLVESGAEVKKPGSSVKVSCKASGYAFSSHWVNWVRQAPGQGLEWMGQIYPGNGDTNYAQKFQGRVTLTADKSTSTAYMELSSLTSEDTAVYFCARWFAYWGQGTLVTVSS
VL: DIQMTQSPSSLSASVGDRVTITCKSSQSLLDGGNQKNYLAWYQQKPGKPPKLLVYFASIRESGVPSRFSGSGSGTDFTLTISSLQPEDFATYYCQQHYNTPWTFGQGTKVEIKR
notes: Humanized

The target in one assay is T1, recombinant extracellular domain protein of human DLL3 (h.DLL3-ECD-His) (human, UniProt Q9NYJ7 27-492).
T1 construct: extracellular domain; Commercial protein; also called human DLL3 antigen; not shown: His tag
T1 sequence (looked up): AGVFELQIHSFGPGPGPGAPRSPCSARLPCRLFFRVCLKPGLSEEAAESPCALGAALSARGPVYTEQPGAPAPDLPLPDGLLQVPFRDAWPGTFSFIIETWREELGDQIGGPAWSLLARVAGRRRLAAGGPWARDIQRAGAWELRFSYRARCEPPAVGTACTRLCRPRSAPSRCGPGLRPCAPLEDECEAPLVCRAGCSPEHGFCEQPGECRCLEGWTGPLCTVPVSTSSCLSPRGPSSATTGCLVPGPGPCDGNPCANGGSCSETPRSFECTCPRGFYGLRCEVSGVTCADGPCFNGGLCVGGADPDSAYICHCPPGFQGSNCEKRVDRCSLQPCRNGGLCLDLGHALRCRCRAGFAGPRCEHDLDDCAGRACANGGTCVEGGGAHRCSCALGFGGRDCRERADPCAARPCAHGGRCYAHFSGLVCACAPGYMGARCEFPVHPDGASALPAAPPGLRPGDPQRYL
As to the kind of experiment: ELISA, titrated antibody on plate-coated human DLL3, OD450nm. (ELISA stands for enzyme-linked immunosorbent assay.)
On to B1, for which the “EC50 (read off the curve)” value was ~5 ng/mL.

On to B2, for which the “EC50 (read off the curve)” value was ~4 ng/mL.

Turning to B3, the “EC50 (read off the curve)” value was ~5 ng/mL.

Consider B4, for which the “EC50 (read off the curve)” value was ~6 ng/mL.

The target of another assay is T2, recombinant extracellular domain protein of cynomolgus monkey DLL3 (cyno.DLL3-ECD-His) (cynomolgus monkey, UniProt A0A2K5WSR1 27-490).
T2 construct: extracellular domain; Commercial protein; not shown: His tag
T2 sequence: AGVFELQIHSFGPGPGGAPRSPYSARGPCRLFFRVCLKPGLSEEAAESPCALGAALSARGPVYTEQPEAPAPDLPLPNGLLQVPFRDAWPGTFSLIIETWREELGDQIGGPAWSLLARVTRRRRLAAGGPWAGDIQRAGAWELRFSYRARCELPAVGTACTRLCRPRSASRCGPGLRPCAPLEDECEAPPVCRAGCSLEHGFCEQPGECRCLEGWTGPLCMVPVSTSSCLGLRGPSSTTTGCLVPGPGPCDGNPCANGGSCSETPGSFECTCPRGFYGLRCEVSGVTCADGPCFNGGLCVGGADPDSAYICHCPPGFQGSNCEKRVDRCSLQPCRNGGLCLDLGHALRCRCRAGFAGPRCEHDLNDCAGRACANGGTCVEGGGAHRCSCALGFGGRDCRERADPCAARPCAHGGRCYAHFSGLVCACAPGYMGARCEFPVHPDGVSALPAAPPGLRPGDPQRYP
Description: ELISA, coated cyno.DLL3-ECD-his 0.2 µg/mL, antibody titrated.
As to B5, the EC50 came out at 5.4 ng/mL.

As to B6, the EC50 was 3.3 ng/mL.

For B7, the EC50 was determined as 6.3 ng/mL.

As for B8, the EC50 worked out at 4.1 ng/mL.

Regarding B9, the EC50 turned out to be 3.5 ng/mL.

The next assay deals with T3, human DLL1 on 293T-hDLL1 cells (human, UniProt O00548 18-723).
T3 construct: whole, on cells; also called 293T-DLL1; HEK293T-hDLL1
T3 sequence (looked up): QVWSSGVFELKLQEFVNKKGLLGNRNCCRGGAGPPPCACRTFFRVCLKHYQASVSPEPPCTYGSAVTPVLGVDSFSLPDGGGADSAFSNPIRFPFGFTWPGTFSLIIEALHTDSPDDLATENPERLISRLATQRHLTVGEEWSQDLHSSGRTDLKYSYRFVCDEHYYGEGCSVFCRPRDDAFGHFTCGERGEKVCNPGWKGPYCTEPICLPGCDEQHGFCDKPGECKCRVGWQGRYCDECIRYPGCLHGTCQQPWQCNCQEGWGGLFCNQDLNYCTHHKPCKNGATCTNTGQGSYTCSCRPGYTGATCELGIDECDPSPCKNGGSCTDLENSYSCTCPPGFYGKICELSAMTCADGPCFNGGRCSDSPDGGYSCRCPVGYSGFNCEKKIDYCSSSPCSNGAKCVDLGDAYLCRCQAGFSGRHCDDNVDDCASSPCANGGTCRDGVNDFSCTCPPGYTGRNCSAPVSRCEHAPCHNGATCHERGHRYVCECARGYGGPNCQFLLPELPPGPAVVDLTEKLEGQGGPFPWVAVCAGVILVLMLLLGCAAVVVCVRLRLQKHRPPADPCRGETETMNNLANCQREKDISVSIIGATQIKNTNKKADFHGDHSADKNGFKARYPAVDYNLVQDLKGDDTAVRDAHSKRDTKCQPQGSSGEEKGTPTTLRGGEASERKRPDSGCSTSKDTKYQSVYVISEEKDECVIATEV
As to the kind of experiment: flow cytometry on HEK293T-hDLL1 cells. (In general: In flow cytometry, cells or beads pass a laser one at a time.)
Take B5: the binding result is given as “no binding (tested: 20 µg/mL)”.

With B6, the binding result is recorded as “no binding (tested: 20 µg/mL)”.

As for B7, the binding result is reported as “no binding (tested: 20 µg/mL)”.

As to B8, the binding result is “no binding (tested: 20 µg/mL)”.

For B9, the binding result is reported as “no binding (tested: 20 µg/mL)”.

Another assay deals with T4, human DLL4 on 293T-hDLL4 cells (human, UniProt Q9NR61 27-685).
T4 construct: whole, on cells; also called 293T-DLL4; HEK293T-hDLL4
T4 sequence (Q9NR61 27-685): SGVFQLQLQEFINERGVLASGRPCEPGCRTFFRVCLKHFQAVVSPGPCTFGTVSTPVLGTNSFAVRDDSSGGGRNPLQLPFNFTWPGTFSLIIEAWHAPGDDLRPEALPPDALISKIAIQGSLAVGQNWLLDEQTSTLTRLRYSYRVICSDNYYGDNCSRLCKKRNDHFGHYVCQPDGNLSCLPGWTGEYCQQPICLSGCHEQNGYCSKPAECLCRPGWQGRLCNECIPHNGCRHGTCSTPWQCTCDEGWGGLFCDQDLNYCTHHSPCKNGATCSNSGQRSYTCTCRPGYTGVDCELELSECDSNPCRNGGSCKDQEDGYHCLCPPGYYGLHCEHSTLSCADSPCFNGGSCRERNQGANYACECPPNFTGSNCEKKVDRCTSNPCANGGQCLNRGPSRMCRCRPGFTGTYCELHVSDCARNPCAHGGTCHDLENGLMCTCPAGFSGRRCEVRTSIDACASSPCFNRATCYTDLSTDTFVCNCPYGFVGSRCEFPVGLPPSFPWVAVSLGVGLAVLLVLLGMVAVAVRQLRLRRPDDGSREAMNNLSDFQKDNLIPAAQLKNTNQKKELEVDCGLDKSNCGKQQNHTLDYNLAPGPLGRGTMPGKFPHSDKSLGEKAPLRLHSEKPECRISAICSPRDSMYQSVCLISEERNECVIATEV
Description: flow cytometry on HEK293T-hDLL4 cells.
Take B5: the binding result is “no binding (tested: 20 µg/mL)”.

Turning to B6, the binding result was “no binding (tested: 20 µg/mL)”.

On to B7, for which the binding result was “no binding (tested: 20 µg/mL)”.

For B8, the binding result is “no binding (tested: 20 µg/mL)”.

Take B9: the binding result was “no binding (tested: 20 µg/mL)”.

The next assay has as its target T1, recombinant extracellular domain …. Description: BLI (ForteBio), antibody on ProA sensor, hDLL3-ECD-His in solution. In general terms: In BLI a coated tip is dipped into the sample, and binding shifts an interference pattern.
In the case of B5, the Kd amounted to 0.243 nM, the koff came out at 4.27e-05 s⁻¹ and the on-rate (kon) worked out at 175000 M⁻¹ s⁻¹.

Consider B6, for which the Kd was 8.57 nM, the koff is 0.000218 s⁻¹ and the kon came to 25400 M⁻¹ s⁻¹.

In the case of B7, the Kd turned out to be 14 nM, the koff turned out to be 0.0017 s⁻¹ and the kon was 122000 M⁻¹ s⁻¹.

Turning to B8, the Kd came to 5.26 nM, the koff came to 0.000652 s⁻¹ and the kon is 124000 M⁻¹ s⁻¹.

Regarding B9, the Kd was 6.07 nM, the koff worked out at 0.00045 s⁻¹ and the kon turned out to be 74200 M⁻¹ s⁻¹.

Another assay shares this target. Description: ELISA, coated h.DLL3-ECD-his 0.2 µg/mL, antibody titrated.
In the case of B5, the EC50 came out at 4.7 ng/mL.

For B6, the EC50 was 3.8 ng/mL.

For the molecule B7, the EC50 came to 5.2 ng/mL.

As for B8, the EC50 came to 3.9 ng/mL.

For the molecule B9, the EC50 came to 3.4 ng/mL.

A further assay has as its target T2, recombinant extracellular domain …. As to the kind of experiment: BLI (ForteBio), antibody on ProA sensor, cynoDLL3-ECD-His in solution.
As to B5, the Kd was found to be 0.873 nM, the koff is 0.000328 s⁻¹ and the kon amounted to 375000 M⁻¹ s⁻¹.

As for B6, the Kd was 2.41 nM, the koff amounted to 8.84e-05 s⁻¹ and the kon came to 36700 M⁻¹ s⁻¹.

Take B7: the equilibrium dissociation constant (Kd) turned out to be 9.08 nM, the koff was 0.000908 s⁻¹ and the kon turned out to be 100000 M⁻¹ s⁻¹.

Regarding B8, the Kd turned out to be 2.37 nM, the koff came out at 0.000479 s⁻¹ and the kon stood at 202000 M⁻¹ s⁻¹.

As for B9, the Kd was found to be 1.28 nM, the koff stood at 0.000122 s⁻¹ and the kon turned out to be 95100 M⁻¹ s⁻¹.
